The values below come from US20240287189A1 (SPARX BIOSCIENCE, published 2024).

Residue numbers refer to the chain shown, from its start.

For test [1], the target named is T1, PDL1 expressed on MDA MB-231 human breast cancer cells (human, UniProt Q9NZQ7 19-290).
T1 construct: whole, on cells; also called MDA MB-231 cells
As to the kind of experiment: flow cytometry on MDA MB-231 cells, anti-human IgG Fc secondary antibody.

The target in test [2] is PDL1 on PDL1 aAPC/CHOK1 cells (UniProt Q9NZQ7 19-290, limits assumed). Put plainly: cell-based or functional assay.
Test [3] has as its target T2, human PD-L1 (recombinant protein, coated and in solution in the phage ELISA) (human, UniProt Q9NZQ7 19-239).
T2 construct: It is probably the same Met1-Thr239 extracellular segment that was used for selection; also called CD274; B7 homolog 1
Put plainly: competitive phage ELISA, ratio to 12A4 parent clone.

Test [4] deals with T2, human PD-L1 (recombinant protein, …). Put plainly: competitive phage ELISA, Fab on phage, soluble PD-L1 against coated PD-L1.

B1: anti-PDL1 monoclonal antibody 12A4bad (antibody, V domains shown)
VH: QVQLVQSGAEVKKPGSSVKVSCKTSGDTFSTYAISWVRQAPGQGLEWMGGIIPLFGKAHYAQKFQGRVTITADESTSTAYMELSSLRSEDTAVYFCARKFHFVRGSPFGMDVWGQGTTVTVSS
VL: EIVLTQSPATLSLSPGERATLSCRASQSVSSYLAWYQQKPGQAPRLLIYDASNRAPGIPARFSGSGSGTDFTLTISSLEPEDFAVYYCQQRSNWPTFGQGTKVEIK
notes: also called PDL1 antibody 12A4bad
Turning to B1, the Kd in test [1] was 0.0778 nM. In addition, the “EC50, luminescent signal in PDL1/PD1 blockage bioassay” value in test [2] is 0.344 nM.

B2: 12A4bd Fab displayed on phage (Fab, V domains shown)
VH: B1 VH
VL: not shown
For the molecule B2, the “Improvement from 12A4 Parent Clone” value in test [3] worked out at 6.3 fold. Moreover, the Kd in test [4] was 1.8 nM.

B3: 12A4a Fab displayed on phage (Fab, V domains shown)
VH: B1 VH with L54I, R104S
VL: B1 VL
Consider B3, for which the “Improvement from 12A4 Parent Clone” value in test [3] stood at 1.3 fold. For the same molecule, the Kd in test [4] was 8.3 nM.

B4: 12A4bad Fab displayed on phage (Fab, V domains shown)
VH: B1 VH
VL: B1 VL
Regarding B4, in test [3], the “Improvement from 12A4 Parent Clone” value amounted to 7.5 fold. The Kd in test [4] worked out at 1.5 nM.

B5: 12A4ad Fab displayed on phage (Fab, V domains shown)
VH: B1 VH with R104S
VL: B1 VL
With B5, the Kd in test [4] turned out to be 5 nM.

B6: 12A4b Fab displayed on phage (Fab, V domains shown)
VH: B1 VH with L54I
VL: not shown
Take B6: in test [3], the “Improvement from 12A4 Parent Clone” value is 3.3 fold.
